Laboratory results: patent US20250290928A1, “METHOD, KIT AND DEVICE FOR DETECTING EXTRACELLULAR VESICLES” (priority 2022, published 2025)
*: point of attachment. 5FAM = O=C1OC2(c3ccc(O)cc3Oc3cc(O)ccc32)c2ccc(C(=O)*)cc21; TQ2 = quencher

Tests used:
[1] = biological target: T1, MMP14 in the HT1080 culture supernatants and the culture medium samples (Homo sapiens, UniProt P50281); assay: Digital detection of MMP14 active component in HT1080 culture supernatants, culture media and recovered liquids in wells; format: biochemical; conditions: for MMP14 active component concentration: HT1080 culture Present
T1 construct: host or cells: HT1080 culture supernatant
Experimental: In addition, for detection of MMP14 activity, 1 mM Custom #1 was diluted with the buffer (4) to prepare a MMP14 detection solution containing 5 μM Custom #1 and 2 μM Alexa Fluor 647.

[2] = biological target: T2, MMP14 in the MDA-MB-231-derived extracellular vesicles (Homo sapiens, UniProt P50281); assay: Digital detection of MDA-MB-231-derived extracellular vesicles through MMP14 activity in liquid droplets; format: biochemical
T2 construct: in terms of intact MMP14 with a molecular weight of 70 kDa
Experimental: The concentration of the solution is 5 μg/mL.
Liquid droplets were prepared by a pumping method of an SPG emulsification membrane through use of the reaction solution for forming liquid droplets prepared in the foregoing. A dispersed phase and a continuous phase are shown below.
An SPG pumping connector (pore diameter: 10 μm, pore diameter: 5 μm, manufactured by SPG Technology Co., Ltd.) was used as the SPG emulsification membrane, and the number of times of pumping reciprocations was set to 10. Thus, liquid droplets each having a diameter of from about 1 μm to about 10 μm were obtained.
The emulsified liquid prepared in the foregoing were subjected to a reaction through incubation at 37° C. to promote the generation of fluorescence.
Next, the images acquired with an SPG pumping connector with a pore diameter of 10 μm were analyzed in the same manner as in Example 19. The above-mentioned fluorescence microscope images after 4 hours of reaction were subjected to predetermined image processing to provide a particle diameter distribution of the liquid droplets shown in FIG. 67, and obtain a histogram representing the number of liquid droplets each showing a fluorescence intensity included in each fraction of fluorescence intensity obtained by dividing fluorescence intensities into intervals of a constant value in each particle diameter range.
Further, when the concentration of the extracellular vesicles having MMP14 activity was calculated through use of the above-mentioned equation (1) from the total number of liquid droplets in each particle diameter range and the number of positive liquid droplets identified from the histogram, the concentration was able to be estimated as described below.

[3] = Example 32, 4 h, droplet diameter 3-4 μm
[4] = Example 32, 4 h, droplet diameter 4-5 μm
[5] = Example 32, 4 h, droplet diameter 5-6 μm
[6] = Example 32, 4 h, droplet diameter 6-7 μm
[7] = Example 32, 4 h, droplet diameter 7-8 μm
[8] = Example 32, 4 h, droplet diameter <3 μm
[9] = Example 32, 4 h, droplet diameter >8 μm

## [5-FAM]GRIGFLRTAK(TQ2)[OH] (5FAM-GRIGFLRTAK(TQ2)-OH) [Custom #1]
[1]; Experiment condition (I): FBS, only centrifugation, Reaction 4 hr
  MMP14 active component concentration: 3.611e+11 mL⁻¹
[1]; Experiment condition (I): FBS, only centrifugation, Reaction 24 hr
  MMP14 active component concentration: 3.753e+11 mL⁻¹
[1]; Experiment condition (II): FBS, centrifugation + filtration, Reaction 4 hr
  MMP14 active component concentration: 3.042e+11 mL⁻¹
[1]; Experiment condition (II): FBS, centrifugation + filtration, Reaction 24 hr
  MMP14 active component concentration: 3.0889e+11 mL⁻¹
[1]; Experiment condition (IV): Exo-FBS, only centrifugation, Reaction 4 hr
  MMP14 active component concentration: 2.013e+11 mL⁻¹
[1]; Experiment condition (IV): Exo-FBS, only centrifugation, Reaction 24 hr
  MMP14 active component concentration: 1.981e+11 mL⁻¹
[1]; Experiment condition (V): Exo-FBS, centrifugation + filtration, Reaction 4 hr
  MMP14 active component concentration: 2.275e+11 mL⁻¹
[1]; Experiment condition (V): Exo-FBS, centrifugation + filtration, Reaction 24 hr
  MMP14 active component concentration: 2.309e+11 mL⁻¹
[1]; Experiment condition (VII): MEM, only centrifugation, Reaction 4 hr
  MMP14 active component concentration: 1.341e+09 mL⁻¹
[1]; Experiment condition (VII): MEM, only centrifugation, Reaction 24 hr
  MMP14 active component concentration: 4.02e+09 mL⁻¹
[1]; Experiment condition (VIII): MEM, centrifugation + filtration, Reaction 4 hr
  MMP14 active component concentration: 2.057e+09 mL⁻¹
[1]; Experiment condition (VIII): MEM, centrifugation + filtration, Reaction 24 hr
  MMP14 active component concentration: 4.426e+09 mL⁻¹
[1]; HT1080 culture supernatant recovered with exoEasy, Exo-FBS, Reaction 4 hr
  MMP14 extracellular vesicle concentration: 1.39e+11 mL⁻¹
[1]; HT1080 culture supernatant recovered with exoEasy, Exo-FBS, Reaction 24 hr
  MMP14 extracellular vesicle concentration: 2.053e+11 mL⁻¹
[1]; HT1080 culture supernatant recovered with exoEasy, MEM, Reaction 4 hr
  MMP14 extracellular vesicle concentration: 1.885e+09 mL⁻¹
[1]; HT1080 culture supernatant recovered with exoEasy, MEM, Reaction 24 hr
  MMP14 extracellular vesicle concentration: 4.428e+09 mL⁻¹
[1]; qEV recovered liquid, Exo-FBS, Fraction # 8, 4 hours of reaction
  MMP14 extracellular vesicle concentration: 1.1833e+10 mL⁻¹
[1]; qEV recovered liquid, Exo-FBS, Fraction # 9, 4 hours of reaction
  MMP14 extracellular vesicle concentration: 2.8135e+10 mL⁻¹
[1]; qEV recovered liquid, Exo-FBS, Fraction # 10, 4 hours of reaction
  MMP14 extracellular vesicle concentration: 5.6859e+10 mL⁻¹
[1]; qEV recovered liquid, Exo-FBS, Fraction # 11, 4 hours of reaction
  MMP14 extracellular vesicle concentration: 5.8114e+10 mL⁻¹
[1]; qEV recovered liquid, Exo-FBS, Fraction # 12, 4 hours of reaction
  MMP14 extracellular vesicle concentration: 5.8598e+10 mL⁻¹
[1]; qEV recovered liquid, Exo-FBS, Fraction # 13, 4 hours of reaction
  MMP14 extracellular vesicle concentration: 5.2408e+10 mL⁻¹
[1]; qEV recovered liquid, Exo-FBS, Fraction # 14, 4 hours of reaction
  MMP14 extracellular vesicle concentration: 7.8483e+10 mL⁻¹
[1]; qEV recovered liquid, Exo-FBS, Fraction # 15, 4 hours of reaction
  MMP14 extracellular vesicle concentration: 1.2532e+11 mL⁻¹
[1]; qEV recovered liquid, MEM, Fraction # 7, 4 hours of reaction
  MMP14 extracellular vesicle concentration: 1.5912e+10 mL⁻¹
[1]; qEV recovered liquid, MEM, Fraction # 8, 4 hours of reaction
  MMP14 extracellular vesicle concentration: 7.493e+09 mL⁻¹
[1]; qEV recovered liquid, MEM, Fraction # 9, 4 hours of reaction
  MMP14 extracellular vesicle concentration: 6.37e+09 mL⁻¹
[1]; qEV recovered liquid, MEM, Fraction # 10, 4 hours of reaction
  MMP14 extracellular vesicle concentration: 7.04e+08 mL⁻¹
[1]; qEV recovered liquid, MEM, Fraction # 11, 4 hours of reaction
  MMP14 extracellular vesicle concentration: 4.42e+08 mL⁻¹
[1]; qEV recovered liquid, MEM, Fraction # 12, 4 hours of reaction
  MMP14 extracellular vesicle concentration: 4.64e+08 mL⁻¹
[1]; qEV recovered liquid, MEM, Fraction # 13, 4 hours of reaction
  MMP14 extracellular vesicle concentration: 9.78e+08 mL⁻¹
[1]; qEV recovered liquid, MEM, Fraction # 14, 4 hours of reaction
  MMP14 extracellular vesicle concentration: 3e+07 mL⁻¹
[2]; Example 32
  Extracellular vesicle concentration: 1.9×10^9 /μg of protein
[2]; [3]
  Concentration (extracellular vesicles having MMP14 activity): 1.06e+10 mL⁻¹
  Expected value λ: 0.217
  Number of positives: 15
  Positive ratio: 0.195
[2]; [4]
  Concentration (extracellular vesicles having MMP14 activity): 9.05e+09 mL⁻¹
  Expected value λ: 0.416
  Number of positives: 16
  Positive ratio: 0.340
[2]; [5]
  Concentration (extracellular vesicles having MMP14 activity): 9.85e+09 mL⁻¹
  Expected value λ: 0.816
  Number of positives: 29
  Positive ratio: 0.558
[2]; [6]
  Concentration (extracellular vesicles having MMP14 activity): 9.03e+09 mL⁻¹
  Expected value λ: 1.293
  Number of positives: 37
  Positive ratio: 0.725
[2]; [7]
  Concentration (extracellular vesicles having MMP14 activity): 9.01e+09 mL⁻¹
  Expected value λ: 1.910
  Number of positives: 23
  Positive ratio: 0.852
[2]; [8]
  Concentration (extracellular vesicles having MMP14 activity): 1.04e+10 mL⁻¹
  Expected value λ: 0.047
  Positive ratio: 0.046
[2]; [9]
  Concentration (extracellular vesicles having MMP14 activity): 8.68e+09 mL⁻¹
  Expected value λ: 3.296
  Number of positives: 26
  Positive ratio: 0.963
[2]; Example 32, SPG pore 10 μm, EV 5 μg/mL, reporter 5 μM, 37° C., 4 h, droplet diameter <3 μm
  Number of positives: 8
[2]; Example 32, all droplet diameter ranges, reaction solution 5.0 μg of protein/mL
  average of the extracellular vesicle concentrations: 9.5e+09 mL⁻¹
